Experimental findings from US20170240595 (published 2017) are described below.

Common to all, as to assay: competition
The target of experiment [1] is T1, hMC4-R (human, UniProt P32245).
Experiment [2] deals with T2, hMC1-R (human, UniProt Q01726).
The target of experiment [3] is T3, hMC5-R (human, UniProt P33032).
Experiment [4] concerns the target T4, hMC3-R (human, UniProt P41968).
In experiment [5] the target is T1, hMC4-R. The source holds these as a separate data set.
Experiment [6] has as its target T3, hMC5-R. This is another data set of the same source.
Experiment [7] concerns the target T4, hMC3-R. The source holds these as a separate data set.
Experiment [8] concerns the target T2, hMC1-R. This is another data set of the same source.

The term Ki denotes a measure of affinity in units of concentration, obtained from inhibition or displacement. Read a high Ki as a looser hold on the target.

Where two headings read alike, the source gives them in different places. Bridges are numbered along the chain shown (N, C = ends). Where no end group is shown, it is not given here. [ ]: non-standard residue; d: D form. Bip = N[C@@H](Cc1ccc(-c2ccccc2)cc1)C(=O)O; 2Nal = N[C@@H](Cc1ccc2ccccc2c1)C(=O)O; d2Nal = N[C@H](Cc1ccc2ccccc2c1)C(=O)O; hArg = N=C(N)NCCCC[C@H](N)C(=O)O; 3Pal = N[C@@H](Cc1cccnc1)C(=O)O; Pen = CC(C)(S)[C@H](N)C(=O)O; Nle = CCCC[C@H](N)C(=O)O; Bal = not defined here; GABA = NCCCC(=O)O; βAla = NCCC(=O)O

T2 sequence (Q01726 whole entry): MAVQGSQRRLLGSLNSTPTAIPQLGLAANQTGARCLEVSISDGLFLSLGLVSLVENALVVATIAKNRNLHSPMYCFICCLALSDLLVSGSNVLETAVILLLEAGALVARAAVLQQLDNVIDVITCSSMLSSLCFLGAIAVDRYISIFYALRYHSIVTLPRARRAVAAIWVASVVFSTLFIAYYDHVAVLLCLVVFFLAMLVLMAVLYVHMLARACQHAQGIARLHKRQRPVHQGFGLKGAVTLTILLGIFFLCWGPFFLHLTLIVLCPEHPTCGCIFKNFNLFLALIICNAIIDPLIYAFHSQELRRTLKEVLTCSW
T4 sequence (P41968 whole entry): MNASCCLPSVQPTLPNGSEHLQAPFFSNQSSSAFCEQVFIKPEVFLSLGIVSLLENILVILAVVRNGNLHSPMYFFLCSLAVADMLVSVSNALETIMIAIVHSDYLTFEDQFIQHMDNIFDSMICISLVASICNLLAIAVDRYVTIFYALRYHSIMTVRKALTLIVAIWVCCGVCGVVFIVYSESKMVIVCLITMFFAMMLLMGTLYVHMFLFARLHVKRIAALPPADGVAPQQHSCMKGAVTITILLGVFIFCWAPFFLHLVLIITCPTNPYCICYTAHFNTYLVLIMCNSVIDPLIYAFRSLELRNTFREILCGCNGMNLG
T1 sequence (P32245 whole entry): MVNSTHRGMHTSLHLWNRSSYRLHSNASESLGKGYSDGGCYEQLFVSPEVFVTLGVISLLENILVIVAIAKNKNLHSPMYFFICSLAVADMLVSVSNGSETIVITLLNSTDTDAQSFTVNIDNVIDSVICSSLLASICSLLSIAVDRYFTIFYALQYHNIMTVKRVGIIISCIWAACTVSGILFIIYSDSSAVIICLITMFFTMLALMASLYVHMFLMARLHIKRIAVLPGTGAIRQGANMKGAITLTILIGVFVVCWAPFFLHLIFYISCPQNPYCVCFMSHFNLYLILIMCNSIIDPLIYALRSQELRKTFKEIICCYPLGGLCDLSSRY
T3 sequence (P33032 whole entry): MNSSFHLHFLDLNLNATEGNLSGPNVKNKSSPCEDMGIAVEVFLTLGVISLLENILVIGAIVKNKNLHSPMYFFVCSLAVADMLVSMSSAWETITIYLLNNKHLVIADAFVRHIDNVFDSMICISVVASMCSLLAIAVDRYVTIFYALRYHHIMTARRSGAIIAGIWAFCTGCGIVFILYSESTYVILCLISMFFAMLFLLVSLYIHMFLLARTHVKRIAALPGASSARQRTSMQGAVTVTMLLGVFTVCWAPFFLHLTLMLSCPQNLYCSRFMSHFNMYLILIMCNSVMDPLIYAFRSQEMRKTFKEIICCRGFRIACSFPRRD

B1: Ac-Nle-c(Asp-D-Ala-His-D-Phe-Arg-Trp-Lys)-NH2 (peptide)
chain: Ac-[Nle]D[dA]H[dF]RWK-NH2
modifications: lactam 2-8
SMILES: CCCC[C@H](NC(C)=O)C(=O)N[C@H]1CC(=O)NCCCC[C@@H](C(N)=O)NC(=O)[C@H](Cc2c[nH]c3ccccc23)NC(=O)[C@H](CCCNC(=N)N)NC(=O)[C@@H](Cc2ccccc2)NC(=O)[C@H](Cc2c[nH]cn2)NC(=O)[C@@H](C)NC1=O
Regarding B1, the inhibitory constant (Ki) with hMC4-R [1] was 2.55 nM; in the experiment with hMC1-R [2], 0.659 nM; with hMC5-R [3], 4.19 nM; with hMC3-R [4] it was 98.9 nM.

Consider Ac-[Nle]C[3Pal][dF]RW[GABA]C-NH2 (disulfide 2-8) [Ac-Nle-c(Cys-3-Pal-D-Phe-Arg-Trp-Gaba-Cys)-NH2], for which the Ki worked out at 21.1 nM in the experiment with hMC1-R [2], 92.6 nM in the experiment with hMC5-R [3] and 151 nM with hMC3-R [4].

For [dF]CH[d(Et)Tyr][hArg]W[βAla][dC]T-NH2 (disulfide 2-8 (inferred)) [D-Phe-c(Cys-His-D-(Et)Tyr-hArg-Trp-β-Ala-D-Cys)-Thr-NH2], in the experiment with hMC4-R [1], the Ki was determined as 14.7 nM.

In the experiment with hMC1-R [2], Ac-[Nle]DH[d2Nal]RWAK-NH2 (lactam 2-8) [Ac-Nle-c(Asp-His-D-2-Nal-Arg-Trp-Ala-Lys)-NH2] displayed a Ki of 1.17 nM.

B2: Ac-D-Arg-c(Cys-His-D-Phe-Arg-Trp-Gaba-Pen)-NH2 (peptide)
chain: Ac-[dR]CH[dF]RW[GABA][Pen]-NH2
modifications: disulfide 2-8
SMILES: CC(=O)N[C@H](CCCNC(=N)N)C(=O)N[C@H]1CSSC(C)(C)[C@@H](C(N)=O)NC(=O)CCCNC(=O)[C@H](Cc2c[nH]c3ccccc23)NC(=O)[C@H](CCCNC(=N)N)NC(=O)[C@@H](Cc2ccccc2)NC(=O)[C@H](Cc2c[nH]cn2)NC1=O
Regarding B2, the Ki with hMC4-R [5] stood at 11 nM; with hMC5-R [6], 538 nM; in the experiment with hMC3-R [7], 172 nM; in the experiment with hMC1-R [8], 3.93 nM.

Turning to CEHXRXAC (cyclic, D-residues) [Ac-c(Cys-Glu-His-D-Phe-Arg-2-Nal-Ala-Cys)-NH2], the results for the Ki with hMC1-R [2] and with hMC5-R [3] were 262 nM and 1460 nM, respectively.

B3: Ac-Arg-c(Cys-His-D-Phe-Arg-Trp-Gaba-Pen)-NH2 (peptide)
chain: Ac-RCH[dF]RW[GABA][Pen]-NH2
modifications: disulfide 2-8
SMILES: CC(=O)N[C@@H](CCCNC(=N)N)C(=O)N[C@H]1CSSC(C)(C)[C@@H](C(N)=O)NC(=O)CCCNC(=O)[C@H](Cc2c[nH]c3ccccc23)NC(=O)[C@H](CCCNC(=N)N)NC(=O)[C@@H](Cc2ccccc2)NC(=O)[C@H](Cc2c[nH]cn2)NC1=O
On to B3, for which the Ki with hMC4-R [5] is 4.57 nM; in the experiment with hMC5-R [6], 502 nM; with hMC3-R [7], 20.5 nM; with hMC1-R [8] it was 1.81 nM.

For the molecule Ac-[Nle]D[dA]H[dF]R[Bal]AK-NH2 (lactam 2-9; reading uncertain) [Ac-Nle-c(Asp-D-Ala-His-D-Phe-Arg-Bal-Ala-Lys)-NH2], the results for the Ki in the experiment with hMC4-R [1], with hMC1-R [2] and with hMC5-R [3] were 21.3 nM, 4.89 nM and 11.1 nM, respectively.

For the molecule [dF]CH[dF]R[Bip][βAla][dC]T-NH2 (disulfide 2-8 (inferred)) [D-Phe-c(Cys-His-D-Phe-Arg-Bip-β-Ala-D-Cys)-Thr-NH2], the Ki with hMC4-R [1] turned out to be 583 nM; with hMC1-R [2] it was 5.8 nM; with hMC5-R [3], 1130 nM; with hMC3-R [4], 3370 nM.

For the molecule Ac-[Nle]D[dA]H[dF]R[Bal]K-NH2 (lactam 2-8; reading uncertain) [Ac-Nle-c(Asp-D-Ala-His-D-Phe-Arg-Bal-Lys)-NH2], the Ki with hMC4-R [1] turned out to be 50.6 nM; with hMC1-R [2], 4.12 nM; with hMC5-R [3], 4300 nM; in the experiment with hMC3-R [4], 445 nM.

B4: Ac-Nle-c(Cys-D-Ala-His-D-Phe-Arg-Trp-Gly-Cys)-NH2 (peptide)
chain: Ac-[Nle]C[dA]H[dF]RWGC-NH2
modifications: disulfide 2-9
SMILES: CCCC[C@H](NC(C)=O)C(=O)N[C@H]1CSSC[C@@H](C(N)=O)NC(=O)CNC(=O)[C@H](Cc2c[nH]c3ccccc23)NC(=O)[C@H](CCCNC(=N)N)NC(=O)[C@@H](Cc2ccccc2)NC(=O)[C@H](Cc2c[nH]cn2)NC(=O)[C@@H](C)NC1=O
Turning to B4, the figures for the Ki with hMC4-R [1], with hMC5-R [3] and with hMC3-R [4] were 3.01 nM, 339 nM and 149 nM, respectively.

In the case of Ac-C[dA]H[dF]R[2Nal]AC-NH2 (disulfide 1-8 (inferred)) [Ac-c(Cys-D-Ala-His-D-Phe-Arg-2-Nal-Ala-Cys)-NH2], the Ki with hMC1-R [2] came out at 132 nM; with hMC5-R [3] it was 8810 nM; with hMC3-R [4], 4560 nM.
